Paper PMC3791854

Molecular target: HIV Env on CEM-Env cells (HIV, strain not stated)

CD4-CD28-CD3ζ chimeric receptor (from UniProt P01730 26-396)
IFNγ in the culture of CEM-Env + CD4-dTc: 838 pg/mL
IL2 in the culture of CEM-Env + CD4-dTc: 318 pg/mL
TNFα in the culture of CEM-Env + CD4-dTc: 249 pg/mL
